Changes are numbered by the printed parent chain.
B1: SRP1848-A02 (antibody, V domains shown)
VH: EVQLVESGGGLVQPGGSLRLSCAASGFNISGFRIHWVRQAPGKGLEWVAGIYPESGATYYADSVKGRFTISADTSKNTAYLQMNSLRAEDTAVYYCARHLYVWDWVLDHVLDYWGQGTLVTVSS
VL: not shown
notes: VH/VL only; Fc-bearing IgG format with trastuzumab LC, HIS/FLAG-tagged, cell-free expressed; constant regions not tied; also called Antibody 2
B2: SRP1848-D03 (antibody, V domains shown)
VH: EVQLVESGGGVVQPGGSLRLSCAASGFNIRYFSIHWVRQAPGKGLEWVGDIFPNDGSTDYADSVKGRFTISADTSKNTAYLQMNSLRAEETAVYYCARGHWSWPSGYWYYLDYWGQGTLVTVSS
VL: not shown
notes: VH/VL only; Fc-bearing IgG format with trastuzumab LC, HIS/FLAG-tagged, cell-free expressed; constant regions not tied; also called Antibody 25
B3: SRP1848-A01 (antibody, V domains shown)
VH: EVQLVESGGGLVQPGGSLRLSCAASGFNITRYSIHWVRQAPGKGLEWVAGILPESGGTSYADSVKGRFTISADTSKNTAYLQMNSLRAEDTAVYYCARHIYPWDWFSNYVLDYWGQGTLVTVSS
VL: not shown
notes: VH/VL only; Fc-bearing IgG format with trastuzumab LC, HIS/FLAG-tagged, cell-free expressed; constant regions not tied; also called Antibody 1
B4: SRP1848-G04 (antibody, V domains shown)
VH: EVQLVESGGGLVQPGGSLRLSCAASGFNIHSTDIHWVRQAPGKGLEWVAYITPAGGATFYADSVKGRFTISADTSKNTAYLQMNSLRAEDTAVYYCARYPYWFAGYMDYWGQGTLVTVSS
VL: not shown
notes: VH/VL only; Fc-bearing IgG format with trastuzumab LC, HIS/FLAG-tagged, cell-free expressed; constant regions not tied; also called Antibody 49
B5: SRP1848-G11 (antibody, V domains shown)
VH: B4 VH with H30S, F59W, A104S
VL: not shown
notes: VH/VL only; Fc-bearing IgG format with trastuzumab LC, HIS/FLAG-tagged, cell-free expressed; constant regions not tied; also called Antibody 54
B6: SRP1848-G06 (antibody, V domains shown)
VH: B4 VH with H30R, F59Y, S63N, Y99Q
VL: not shown
notes: VH/VL only; Fc-bearing IgG format with trastuzumab LC, HIS/FLAG-tagged, cell-free expressed; constant regions not tied; also called Antibody 50
B7: SRP1848-G07 (antibody, V domains shown)
VH: B4 VH with F59W, Y101F
VL: not shown
notes: VH/VL only; Fc-bearing IgG format with trastuzumab LC, HIS/FLAG-tagged, cell-free expressed; constant regions not tied; also called Antibody 51
B8: SRP1848-G10 (antibody, V domains shown)
VH: B4 VH with G16S, H30R, F59Y, M107I
VL: not shown
notes: VH/VL only; Fc-bearing IgG format with trastuzumab LC, HIS/FLAG-tagged, cell-free expressed; constant regions not tied; also called Antibody 53
B9: SRP1848-G09 (antibody, V domains shown)
VH: B4 VH with H30R, S31G, Y99H, P100E, A104S
VL: not shown
notes: VH/VL only; Fc-bearing IgG format with trastuzumab LC, HIS/FLAG-tagged, cell-free expressed; constant regions not tied; also called Antibody 52
B10: SRP1848-C10 (antibody, V domains shown)
VH: EVQLVESGGGLVQPGGSLRLSCAASGFNIRTYYIHWVRQAPGKGLEWVGGISPIDGYTDYADSVKGRFTISADTSKNTAYLQMNSLRAEDTAVYYCARGSWSWPAGYGYYLDYWGQGTLVTVSS
VL: not shown
notes: VH/VL only; Fc-bearing IgG format with trastuzumab LC, HIS/FLAG-tagged, cell-free expressed; constant regions not tied; also called Antibody 23
B11: SRP1848-E03 (antibody, V domains shown)
VH: B10 VH with V12A, R30G, T31N, S52T, I54R, Y57F, M83V, Y107H, G108S
VL: not shown
notes: VH/VL only; Fc-bearing IgG format with trastuzumab LC, HIS/FLAG-tagged, cell-free expressed; constant regions not tied; also called Antibody 33
B12: SRP1848-F11 (antibody, V domains shown)
VH: B10 VH with R30S, T31N, Y32N, S52T, Y57N, K76M, S102Y, P104R, T118A
VL: not shown
notes: VH/VL only; Fc-bearing IgG format with trastuzumab LC, HIS/FLAG-tagged, cell-free expressed; constant regions not tied; also called Antibody 46
B13: SRP1848-F01 (antibody, V domains shown)
VH: B10 VH with Y33S, G50S, S52F, I54N, Y57T, S102A, P104R, G108S
VL: not shown
notes: VH/VL only; Fc-bearing IgG format with trastuzumab LC, HIS/FLAG-tagged, cell-free expressed; constant regions not tied; also called Antibody 37
B14: SRP1848-E07 (antibody, V domains shown)
VH: EVQLVESGGGLVQPGGSLRLSCAASGFNIRKSSIHWVRQAPGKGLEWVGEIFPYDGSTDYADNVKGRFTISADTSKNTAYLQMNSLRAEDTAVYYCARGAWSWRSGYGYYIDYWGQGTLVTVSS
VL: not shown
notes: VH/VL only; Fc-bearing IgG format with trastuzumab LC, HIS/FLAG-tagged, cell-free expressed; constant regions not tied; also called Antibody 36
B15: SRP1848-G03 (antibody, V domains shown)
VH: B10 VH with R30S, S52T, I54S, Y57F, F68S, A105S, Y107H, Y110F
VL: not shown
notes: VH/VL only; Fc-bearing IgG format with trastuzumab LC, HIS/FLAG-tagged, cell-free expressed; constant regions not tied; also called Antibody 48
B16: SRP1848-E02 (antibody, V domains shown)
VH: B14 VH with R30G, S32Y, F52Y, Y54N, S57N, N63S, A100S, I111L
VL: not shown
notes: VH/VL only; Fc-bearing IgG format with trastuzumab LC, HIS/FLAG-tagged, cell-free expressed; constant regions not tied; also called Antibody 32
B17: SRP1848-F02 (antibody, V domains shown)
VH: B10 VH with Y33S, G50S, S52F, I54N, Y57T, F68L, P104Q
VL: not shown
notes: VH/VL only; Fc-bearing IgG format with trastuzumab LC, HIS/FLAG-tagged, cell-free expressed; constant regions not tied; also called Antibody 38
B18: SRP1848-F10 (antibody, V domains shown)
VH: B14 VH with R30S, K31N, S32N, E50S, Y54N, S57Y, N63S, A100S, S102F, I111L
VL: not shown
notes: VH/VL only; Fc-bearing IgG format with trastuzumab LC, HIS/FLAG-tagged, cell-free expressed; constant regions not tied; also called Antibody 45
B19: SRP1848-D02 (antibody, V domains shown)
VH: B10 VH with R30S, T31H, Y32N, S52T, I54Q, S85R, S100A, P104R
VL: not shown
notes: VH/VL only; Fc-bearing IgG format with trastuzumab LC, HIS/FLAG-tagged, cell-free expressed; constant regions not tied; also called Antibody 24
B20: SRP1848-F05 (antibody, V domains shown)
VH: B14 VH with R30S, F52Y, Y54N, N63S, A100S, S102A, G108S, Y110F, I111L
VL: not shown
notes: VH/VL only; Fc-bearing IgG format with trastuzumab LC, HIS/FLAG-tagged, cell-free expressed; constant regions not tied; also called Antibody 40
B21: SRP1848-G01 (antibody, V domains shown)
VH: EVQLVESGGGLVQPGGSLRLSCAASGFNISRHSIHWVRQAPGKGLEWVGWIAPNDGSTDYADSVKGRFTISADTSKNTAYLQMNSLRAEDTAVYYCARGSWAWRSGYSYFLDYWGQGTLVTVSS
VL: not shown
notes: VH/VL only; Fc-bearing IgG format with trastuzumab LC, HIS/FLAG-tagged, cell-free expressed; constant regions not tied; also called Antibody 47
B22: SRP1848-F09 (antibody, V domains shown)
VH: B10 VH with R30S, T31N, Y32H, I54L, S100A, P104R, A105S, L111I
VL: not shown
notes: VH/VL only; Fc-bearing IgG format with trastuzumab LC, HIS/FLAG-tagged, cell-free expressed; constant regions not tied; also called Antibody 44
B23: SRP1848-F07 (antibody, V domains shown)
VH: B21 VH with R31N, W50E, A52Y, S57I, R87S, A102D, F110Y
VL: not shown
notes: VH/VL only; Fc-bearing IgG format with trastuzumab LC, HIS/FLAG-tagged, cell-free expressed; constant regions not tied; also called Antibody 42
B24: SRP1848-D10 (antibody, V domains shown)
VH: B14 VH with R30S, K31R, S32N, E50W, F52S, Y54N, S57T, N63S, T74G
VL: not shown
notes: VH/VL only; Fc-bearing IgG format with trastuzumab LC, HIS/FLAG-tagged, cell-free expressed; constant regions not tied; also called Antibody 30
B25: SRP1848-D05 (antibody, V domains shown)
VH: B10 VH with R30S, T31I, Y32S, P104R
VL: not shown
notes: VH/VL only; Fc-bearing IgG format with trastuzumab LC, HIS/FLAG-tagged, cell-free expressed; constant regions not tied; also called Antibody 27
B26: SRP1848-H01 (antibody, V domains shown)
VH: B10 VH with Y32Q, Y33S, V48I, G50D, S52F, Y57I, A105S, Y107M, G108D
VL: not shown
notes: VH/VL only; Fc-bearing IgG format with trastuzumab LC, HIS/FLAG-tagged, cell-free expressed; constant regions not tied; also called Antibody 55

target: T1, Cynomolgus folate receptor alpha (cynomolgus monkey, UniProt P15328 25-234 (human entry)); experiment: FACS, CHO-cFOLR1 cells
T1 construct: Stably expressed on CHO cells (CHO-cFOLR1); also called cynomolgus FOLR1; CHO-cFOLR1
T1 sequence (P15328 other isoform, or with tags, fused parts or gaps limits assumed): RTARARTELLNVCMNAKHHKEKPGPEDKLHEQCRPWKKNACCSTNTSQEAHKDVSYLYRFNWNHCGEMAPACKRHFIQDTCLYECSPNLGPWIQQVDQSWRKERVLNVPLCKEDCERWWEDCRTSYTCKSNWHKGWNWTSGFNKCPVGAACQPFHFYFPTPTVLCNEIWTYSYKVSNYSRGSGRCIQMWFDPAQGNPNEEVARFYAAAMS

Binder | Bmax
B1 | 18500 MFI
B2 | 14100 MFI
B3 | 22600 MFI
B4 | 12500 MFI
B5 | 11800 MFI
B6 | 12800 MFI
B7 | 13700 MFI
B8 | 14200 MFI
B9 | 17700 MFI
B10 | 16000 MFI
B11 | 17400 MFI
B12 | 21800 MFI
B13 | 21500 MFI
B14 | 20400 MFI
B15 | 19200 MFI
B16 | 18700 MFI
B17 | 14900 MFI
B18 | 20700 MFI
B19 | 28000 MFI
B20 | 24700 MFI
B21 | 20900 MFI
B22 | 24200 MFI
B23 | 18700 MFI
B24 | 20600 MFI
B25 | 22200 MFI
B26 | 17200 MFI

target: T2, Human folate receptor alpha (hFOLR1) (human, UniProt P15328 25-234); experiment: FACS, CHO-hFOLR1 cells
T2 construct: Stably expressed on CHO cells (CHO-hFOLR1) for flow cytometry; endogenous on FOLR1-positive KB and Igrov1 cells in the killing assay; also called human FOLR1; FolRα
T2 sequence (P15328 25-234 limits assumed): as the sequence (P15328 other isoform, or with tags, fused parts or gaps limits assumed) above, with T2I, R4W, K37R, R117Q, P146A, Y171H counted along it
Protocol: CHO cells were transfected to stably express human (CHO-hFOLR1), cynomolgus (CHO-cFOLR1), or mouse (CHO-mFOLR1) target molecule FOLR1 on the cell surface. Parental CHO cells were used as a negative control to determine background binding levels. Parental CHO and stably transfected CHO-hFOLR1, CHO-cFOLR1, and CHO-mFOLR1 cells were cultured in Ham's F-12: high glucose DMEM (50:50) (Corning, Cellgro-Mediatech) supplemented with 10% heat-inactivated fetal bovine serum (Corning, Cellgro-Mediatech), 1% Penicillin/Streptomycin (Corning, Cellgro-Mediatech) and 2 mmol/L-glutamax (Life Technology).
A mixture of fluoresecent-labeled parental CHO cells and unlabeled CHO-hFOLRlcells were prepared as follows. Parental CHO cells were washed twice in PBS and incubated in PBS containing with 1 nM CellTrace™ Oregon Green488® (Life Technologies) at 37° C. for 30 minutes. Labeled parental CHO cells were then washed 2× with Ham's F-12 media and 2× with FACS buffer (PBS with 1% bovine serum albumin). Unlabeled CHO-hFOLR1 cells were similarly washed and prepared. Labeled parental CHO and unlabeled CHO-hFOLR1 cells were combined at 1:1 ratio and seeded at 50 μL per well (200,000 cells per well) in 96 well polypropylene plates. Cells were mixed with 50 μL of test antibodies (i.e., anti-FOLR1 variants) serially diluted in FACS buffer and incubated on ice for 60 mins. Cells were washed with FACS buffer and incubated on ice for 60 mins with 100 μL FACS buffer containing 2.5 μg/mL R-Phycoerythrin-conjugated goat anti-Human IgG (Jackson ImmunoResearch Laboratories, West Grove, Pa.). Cells were washed twice with FACS buffer, fixed in 2% paraformaldehyde in PBS (Santa Cruz Biotechnology; Dallas, Tex.) for 10 mins on ice in the dark, and analyzed using the BD LSR II Flow Cytometer (BD Biosciences; San Jose, Calif.). Data were analyzed using FlowJo® software (FlowJo, LLC; Ashland, Oreg.) to determine mean fluorescence intensities. Binding constants were calculated using the statistical software, GraphPad Prism (GraphPad Software; La Jolla, Calif.) using the nonlinear regression equation, one site-specific binding with Hill slope. Secondary antibody alone was used as a control, in addition to measuring non-specific antibody binding to CHO parental cells.

Binder | Bmax
B1 | 24700 MFI
B2 | 26000 MFI
B3 | 25900 MFI
B4 | 25200 MFI
B5 | 27200 MFI
B6 | 25800 MFI
B7 | 24900 MFI
B8 | 25300 MFI
B9 | 25100 MFI
B10 | 27500 MFI
B11 | 26700 MFI
B12 | 26800 MFI
B13 | 25200 MFI
B14 | 27300 MFI
B15 | 26400 MFI
B16 | 23800 MFI
B17 | 25700 MFI
B18 | 25600 MFI
B19 | 28800 MFI
B20 | 27200 MFI
B21 | 27400 MFI
B22 | 23800 MFI
B23 | 27400 MFI
B24 | 26500 MFI
B25 | 26700 MFI
B26 | 27000 MFI

target: T3, Murine folate receptor alpha (mouse, UniProt P35846 25-232); experiment: FACS, CHO-mFOLR1 cells
T3 construct: Stably expressed on CHO cells (CHO-mFOLR1); also called mouse FOLR1; CHO-mFOLR1
T3 sequence (P35846 25-232 limits assumed): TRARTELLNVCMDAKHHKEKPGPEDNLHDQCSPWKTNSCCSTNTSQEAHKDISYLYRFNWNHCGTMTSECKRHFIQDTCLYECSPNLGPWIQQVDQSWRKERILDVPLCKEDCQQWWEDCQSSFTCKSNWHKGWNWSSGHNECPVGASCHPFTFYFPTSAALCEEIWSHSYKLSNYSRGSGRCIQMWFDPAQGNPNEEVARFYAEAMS

Binder | Bmax
B1 | 18600 MFI
B2 | 3170 MFI
B3 | 16500 MFI
B4 | 2000 MFI
B5 | 2740 MFI
B6 | 1860 MFI
B7 | 1980 MFI
B8 | 2890 MFI
B9 | 2180 MFI
B10 | 2330 MFI
B11 | 5940 MFI
B12 | 1760 MFI
B13 | 3750 MFI
B14 | 11800 MFI
B15 | 2220 MFI
B16 | 1470 MFI
B17 | 2740 MFI
B18 | 1740 MFI
B19 | 916 MFI
B20 | 5100 MFI
B21 | 1990 MFI
B22 | 1670 MFI
B23 | 1390 MFI
B24 | 1860 MFI
B25 | 1360 MFI
B26 | 3950 MFI
